Patent US20230333112A1 (published 2023)
Blank lines part the entries; values can stand above or below the binder they belong to.

Experiments:
[1] = target: T1, NKp30 coated on the ELISA plate (Example 14) (UniProt O14931 19-135); test: ELISA
T1 chain: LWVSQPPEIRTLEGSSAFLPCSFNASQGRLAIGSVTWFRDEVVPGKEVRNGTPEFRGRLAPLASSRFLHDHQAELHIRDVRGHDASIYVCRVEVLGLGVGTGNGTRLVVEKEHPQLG

[2] = target: T1, NKp30 coated on the ELISA plate …; test: competition ELISA; blocking of B7-H6 binding to NKp30

Kd [1]: 0.578 nM | IC50 [2]: 29.4 nM
B1: BJM1042 (bispecific anti-TRBC1/NKp30 antibody) (bispecific antibody)
heavy: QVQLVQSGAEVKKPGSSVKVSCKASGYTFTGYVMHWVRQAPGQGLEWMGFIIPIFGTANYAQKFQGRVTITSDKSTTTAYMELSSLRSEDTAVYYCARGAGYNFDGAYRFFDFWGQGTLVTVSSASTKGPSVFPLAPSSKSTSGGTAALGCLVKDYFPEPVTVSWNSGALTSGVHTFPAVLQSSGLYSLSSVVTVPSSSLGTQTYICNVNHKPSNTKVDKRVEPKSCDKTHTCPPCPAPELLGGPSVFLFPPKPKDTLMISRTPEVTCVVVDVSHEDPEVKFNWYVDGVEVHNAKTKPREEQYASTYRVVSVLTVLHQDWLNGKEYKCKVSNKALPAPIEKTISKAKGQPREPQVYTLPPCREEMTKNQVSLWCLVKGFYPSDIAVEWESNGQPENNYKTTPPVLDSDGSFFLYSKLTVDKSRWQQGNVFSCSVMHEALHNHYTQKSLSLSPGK
light: DVVMTQSPLSLPVTLGQPASISCRSSQRLVHSNGNTYLHWYQQRPGQSPRLLIYRVSNRFPGVPDRFSGSGSGTDFTLKISRVEAEDVGVYFCSQSTHVPYTFGGGTKVEIKRTVAAPSVFIFPPSDEQLKSGTASVVCLLNNFYPREAKVQWKVDNALQSGNSQESVTEQDSKDSTYSLSSTLTLSKADYEKHKVYACEVTHQGLSSPVTKSFNRGEC
chain: EIQLLESGGGLVQPGGSLRLSCAVSGFSITTTGYHWNWVRQAPGKGLEWVGYIYSSGSTSYNPSLKSRFTISRDTSKNTFYLQMNSLRAEDTAVYYCARGDWHYFDYWGQGTMVTVSSGGGGSGGGGSGGGGSGGGGSDSVTTQSPLSLPVTLGQPASISCSGEKLSDKYVHWYQQRPGQSPRMLIYENDRRPSGVPDRFSGSNSGNDATLKISRVEAEDVGVYFCQFWDSTNSAVFGGGTKVEIKDKTHTCPPCPAPELLGGPSVFLFPPKPKDTLMISRTPEVTCVVVDVSHEDPEVKFNWYVDGVEVHNAKTKPREEQYASTYRVVSVLTVLHQDWLNGKEYKCKVSNKALPAPIEKTISKAKGQPREPQVCTLPPSREEMTKNQVSLSCAVKGFYPSDIAVEWESNGQPENNYKTTPPVLDSDGSFFLVSKLTVDKSRWQQGNVFSCSVMHEALHNHYTQKSLSLSPGK

Kd [1]: 6.56 nM
B2: B7-H6 (ligand)
chain: DLKVEMMAGGTQITPLNDNVTIFCNIFYSQPLNITSMGITWFWKSLTFDKEVKVFEFFGDHQEAFRPGAIVSPWRLKSGDASLRLPGIQLEEAGEYRCEVVVTPLKAQGTVQLEVVASPASRLLLDQVGMKENEDKYMCESSGFYPEAINITWEKQTQKFPHPIEISEDVITGPTIKNMDGTFNVTSCLKLNSSQEDPGTVYQCVVRHASLHTPLRSNFTLTAARHSLSETEKTDNFS
